The results in this text go back to patent US20260263521A1, “ANTI-CD200R1 ANTIBODY AND USE THEREOF” (AIMED BIO INC., priority 2023, published 2026).

For test [1], the system named is monkey CD200R1. The test is described as follows: ELISA binding to monkey CD200R1. Conditions: Example 14. From the text: Therefore, the LC D51 and LC D92 sequences were not substituted during the optimization process. However, since LC N30 and LC N31 can play an important role in the specific binding of antibodies as paratopes, the sequences were substituted and optimized. Through rational design, LC S52 and LC S94 were substituted with K and R, respectively, to derive P001009v1, and LC S52 and LC D93 were substituted with K and R, respectively, to derive P001009v2. Further, P001009v3, in which LC N30 was substituted with S, and P001009v4, in which LC N31 was substituted with K, were derived and produced, and the binding ability to human, mouse, and monkey CD200R1 was analyzed by ELISA (FIG. 15). […] Both […] and variants thereof had very weak binding ability to mouse CD200R1 at concentrations up to 300 nM.

The target in test [2] is T1, CD200R1 on U937-CD200R overexpressing cells (Homo sapiens, UniProt Q8TD46).
T1 construct: host or cells: U937 (CRL-1593.2)
T1 sequence (Q8TD46 25-348): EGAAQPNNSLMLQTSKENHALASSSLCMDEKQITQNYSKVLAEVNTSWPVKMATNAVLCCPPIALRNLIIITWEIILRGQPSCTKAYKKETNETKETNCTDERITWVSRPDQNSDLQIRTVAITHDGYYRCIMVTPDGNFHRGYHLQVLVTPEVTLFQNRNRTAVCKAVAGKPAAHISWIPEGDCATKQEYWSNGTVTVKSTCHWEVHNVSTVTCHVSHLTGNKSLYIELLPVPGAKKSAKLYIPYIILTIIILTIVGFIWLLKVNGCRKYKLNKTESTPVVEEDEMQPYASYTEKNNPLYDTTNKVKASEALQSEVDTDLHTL
As to the kind of experiment: Cell binding assay (flow cytometry), U937-CD200R1 cells. The format is cell-based. As to conditions: serial dilution from 100 nM. How it is done:
Binding ability was determined in HH, an endogenous T cell line with high CD200R1 expression, and two additional overexpressing cell lines: U937-CD200R overexpressing cells, generated by intranuclear injection of human CD200R1 CDNA into the monocytic cell line U937 (CRL-1593.2) (Source: UMC Utrecht, the Netherlands) and Jurkat-CD200R overexpressing cells, were also cells engineered using a similar method.
All cell lines were maintained in RPMI 1640 medium supplemented with 10% heat-inactivated FBS and 1% penicillin/streptomycin (P/S) and cell binding was determined in the same manner as in Example 12. Two additional wells were treated with 10 μl of mouse IgG1K (BD, #555751) and 5 μl of commercial CD200R1 antibody (Biolegend, #329308) to determine CD200R1 expression on the cell line surface for cell quality control.
Specific binding ability was determined using P001009 WT and antibody-optimized mutants, P001009v1, P001009v2, P001009v3, and P001009v4. The antibodies were serially diluted 10-fold from a maximum concentration of 100 nM to 10 nM, 1 nM, […], and were added to the pre-seeded cells. […] Using GraphPad Prism software, the EC50 was determined using a nonlinear graph model of log (agonist) vs. response-variable slope, as shown in Table 32.

Test [3] concerns Th1/Th2 cytokines in nasal polyp patient specimens. The test is described as follows: Ex vivo cytokine inhibition in nasal polyp patient specimens (CBA). The class given is cell-based, human. As to conditions: antibody drugs 100 nM; three DUPIXENT-resistant samples of 10; Th2 cytokines IL-5, IL-4. How it is done: The specimens were finely chopped and minced, and then additionally processed twice using the m_lung_02 protocol on a gentleMACS (Miltenyi Biotec) to obtain tissue fragments. After centrifugation at 1500 rpm for 3 minutes to ensure that all tissues formed a pellet, RPMI media+10% FBS was aliquoted in the pellet at a 1:3 ratio. The pellet was thoroughly mixed with the medium and dispensed into a 96-well u-bottom plate, 100 μl per well, in triplicate for each drug. To establish the screening assay, results were obtained first using dexamethasone (a steroid-based positive control drug), followed by treatment with the anti-CD200R1 antibody (P001009v1) and other drugs used for the corresponding disease. All antibody-based drugs were treated at 100 nM, while steroid drugs such as dexamethasone were treated at 20 μM.
After drug treatment, the cells were incubated at 37° C. for 1 hour. To increase overall cytokine levels, 4 μl of a 10-fold diluted cell stimulation cocktail 500× (Invitrogen #00-4970-03) was added on each well and mixed. After reaction for 24 hours at 37° C., the supernatant was collected by centrifugation. Using the human Th1/Th2 cytokine cytometric bead array (CBA) kit (BD, #550749), cytokine levels in the supernatant were measured and the degree of drug responsiveness of each sample was determined.

In test [4] the test system is contact dermatitis animal model. As to the kind of experiment: Contact dermatitis animal model (oxazolone). As to conditions: 20 mg/kg intravenously. The format is in vivo, C57BL/6 mice. The protocol:
An in vivo contact dermatitis animal model was established to evaluate the anti-inflammatory efficacy of the anti-CD200R1 antibody. Ten-week-old female C57BL/6 mice were used for the contact dermatitis model. The animals were anesthetized and the abdominal hair thereof was removed. The following day, the shaved abdominal area was sensitized with 100 μL of 3% oxazolone in ethanol. Seven days after sensitization, P001009v1 was administered intravenously at a dose of 20 mg/kg. Four hours later, the thickness of both ears was measured. Then, both ears were sensitized with 2% oxazolone in 10 μL of ethanol. The thickness of both ears was measured again at 24 and 48 hours, and changes in ear edema thickness were recorded. Statistical analysis was performed using one-way ANOVA.

B1: P001009v1: P001009 variant, LC S52 and LC S94 substituted with K and R; VH SEQ ID NO: 79 (antibody, V domains shown)
VH: EVQLLESGGGLVQPGGSLRLSCAASGFTFSSYDMSWVRQAPGKGLEWVSWISHGGGSIYYADSVKGRFTISRDNSKNTLYLQMNSLRAEDTAVYYCARDAPAYSAPLFDYWGQGTLVTVSS
VL: QSVLTQPPSASGTPGQRVTISCSGSSSNIGNNAVNWYQQLPGTAPKLLIYYDKNRPSGVPDRFSGSKSGTSASLAISGLRSEDEADYYCAAWDDRLSGYVFGGGTKLTVL
Turning to B1, the “binding ability to monkey CD200R1 compared to parent” value in test [1] is “improved”. Moreover, in test [2], the “binding ability to U937-CD200R1” value is given as “exhibited binding ability”. Moreover, the “cytokine suppression in nasal polyp patient samples” value in test [3] is “superior cytokine suppression”. In test [4] (48 hours), the “anti-inflammatory efficacy after 48 hours” value is on record as “maintained”. Moreover, the “anti-inflammatory response (ear edema thickness)” value in test [4] (compared to control group) is recorded as “significant anti-inflammatory response”.
